The results in this text go back to patent US20260151494A1 (ARO BIOTHERAPEUTICS, published 2026).

By EC50 is commonly meant the midpoint of the concentration-response curve.

Residue numbers refer to the chain shown, from its start.

Experiment [1] concerns the target human CD71 on cells (SKBR3; SW620-rLuc-KRAS) (human, UniProt P02786 1-760). Put plainly: cell-based or functional assay.
Experiment [2] concerns the target T1, human CD71 extracellular domain (CD71-ECD) (human, UniProt P02786 89-760).
T1 construct: It was captured on a Neutravidin plate; also called hCD71; transferrin receptor 1 ECD
Put plainly: capture ELISA, 20 nM antigen on Neutravidin plate, FN3 titrated 250 to 0.3 nM. The method, then: (§1) Select CD71-binding FN3 domains identified in Example 4 above were chosen to determine their binding to both human and cynomolgus monkey CD71 extracellular domain (CD71-ECD). Capture ELISA using CD71 binding to FN3 domains was performed, with the FN3 domains being titrated from 250 nM to 0.3 nM. 20 nM of antigen was incubated on a Neutravidin® plate for 1 hour at room temperature. The FN3 domains were incubated for 16 hours at room temperature.

Experiment [3] addresses T2, cynomolgus monkey CD71 extracellular domain (CD71-ECD) (cynomolgus monkey, UniProt H9EXL1 89-760 (rhesus entry)).
T2 construct: extracellular domain; It was captured on a Neutravidin plate; also called cynomolgus CD71-ECD
Described as above. The method, then:
as §1

Experiment [4] deals with T3, human CD71 extracellular domain (human, UniProt P02786 89-760).
T3 construct: also called hCD71; human CD71-ECD
Put plainly: primary ELISA screen, human CD71-ECD. A general note: In an ELISA, binding on a coated surface is turned into a signal by an enzyme label.

Experiment [5] has as its target T4, apical domain of CD71 (Screen 3: 'cynomolgus apical domain of human CD71') (cynomolgus (as 'cynomolgus apical …)).
T4 construct: domain: apical domain; Species is told ambiguously
Put plainly: primary ELISA screen, apical domain of CD71.

Experiment [6] has as its target T4, apical domain of CD71 (Screen 3: …). Nature of the experiment: primary ELISA screen, RLU on apical domain over RLU on HSA.
Experiment [7] concerns the target T3, human CD71 extracellular domain. Nature of the experiment: primary ELISA screen, RLU on human CD71-ECD over RLU on HSA.

T3 sequence (P02786 89-760): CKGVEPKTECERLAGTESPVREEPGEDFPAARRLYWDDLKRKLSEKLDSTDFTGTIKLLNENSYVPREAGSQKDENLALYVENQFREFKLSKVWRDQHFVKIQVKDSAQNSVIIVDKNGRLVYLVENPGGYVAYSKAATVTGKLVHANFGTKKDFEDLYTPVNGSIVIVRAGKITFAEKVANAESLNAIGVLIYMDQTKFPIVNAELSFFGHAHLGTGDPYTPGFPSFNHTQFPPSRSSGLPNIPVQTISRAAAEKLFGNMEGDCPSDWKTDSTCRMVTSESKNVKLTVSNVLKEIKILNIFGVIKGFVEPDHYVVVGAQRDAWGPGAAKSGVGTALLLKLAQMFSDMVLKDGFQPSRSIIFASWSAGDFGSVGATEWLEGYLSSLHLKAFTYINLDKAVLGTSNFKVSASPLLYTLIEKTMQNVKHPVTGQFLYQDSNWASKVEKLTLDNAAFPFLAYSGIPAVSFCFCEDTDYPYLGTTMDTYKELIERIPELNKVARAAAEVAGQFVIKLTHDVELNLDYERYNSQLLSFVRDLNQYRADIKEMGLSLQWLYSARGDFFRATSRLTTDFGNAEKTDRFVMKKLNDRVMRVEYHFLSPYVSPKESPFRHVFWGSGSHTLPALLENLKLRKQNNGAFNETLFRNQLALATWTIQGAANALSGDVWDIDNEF
T1 sequence (P02786 89-760): as above
human CD71 on cells (SKBR3; SW620-rLuc-KRAS), sequence (P02786 whole entry, the tested form may be a part): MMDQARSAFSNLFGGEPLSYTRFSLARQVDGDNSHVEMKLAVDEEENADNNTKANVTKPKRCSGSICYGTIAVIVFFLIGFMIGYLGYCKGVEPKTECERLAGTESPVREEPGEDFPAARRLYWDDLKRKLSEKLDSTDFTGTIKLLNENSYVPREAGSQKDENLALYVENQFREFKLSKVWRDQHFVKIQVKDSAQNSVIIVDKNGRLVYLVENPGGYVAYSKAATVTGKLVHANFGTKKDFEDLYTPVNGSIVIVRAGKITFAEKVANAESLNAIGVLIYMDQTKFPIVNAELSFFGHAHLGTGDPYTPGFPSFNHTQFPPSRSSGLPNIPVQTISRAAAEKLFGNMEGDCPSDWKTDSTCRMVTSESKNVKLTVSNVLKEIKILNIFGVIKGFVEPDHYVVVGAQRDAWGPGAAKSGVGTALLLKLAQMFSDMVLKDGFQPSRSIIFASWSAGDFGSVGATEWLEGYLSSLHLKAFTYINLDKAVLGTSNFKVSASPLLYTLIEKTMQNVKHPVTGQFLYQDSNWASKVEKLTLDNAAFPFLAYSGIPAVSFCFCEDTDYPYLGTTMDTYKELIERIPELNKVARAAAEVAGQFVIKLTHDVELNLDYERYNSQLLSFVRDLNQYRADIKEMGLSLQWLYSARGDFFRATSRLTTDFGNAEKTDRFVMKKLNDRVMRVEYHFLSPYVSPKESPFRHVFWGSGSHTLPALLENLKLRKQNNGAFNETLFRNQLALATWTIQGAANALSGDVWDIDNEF
T2 sequence (chain, as listed by the source): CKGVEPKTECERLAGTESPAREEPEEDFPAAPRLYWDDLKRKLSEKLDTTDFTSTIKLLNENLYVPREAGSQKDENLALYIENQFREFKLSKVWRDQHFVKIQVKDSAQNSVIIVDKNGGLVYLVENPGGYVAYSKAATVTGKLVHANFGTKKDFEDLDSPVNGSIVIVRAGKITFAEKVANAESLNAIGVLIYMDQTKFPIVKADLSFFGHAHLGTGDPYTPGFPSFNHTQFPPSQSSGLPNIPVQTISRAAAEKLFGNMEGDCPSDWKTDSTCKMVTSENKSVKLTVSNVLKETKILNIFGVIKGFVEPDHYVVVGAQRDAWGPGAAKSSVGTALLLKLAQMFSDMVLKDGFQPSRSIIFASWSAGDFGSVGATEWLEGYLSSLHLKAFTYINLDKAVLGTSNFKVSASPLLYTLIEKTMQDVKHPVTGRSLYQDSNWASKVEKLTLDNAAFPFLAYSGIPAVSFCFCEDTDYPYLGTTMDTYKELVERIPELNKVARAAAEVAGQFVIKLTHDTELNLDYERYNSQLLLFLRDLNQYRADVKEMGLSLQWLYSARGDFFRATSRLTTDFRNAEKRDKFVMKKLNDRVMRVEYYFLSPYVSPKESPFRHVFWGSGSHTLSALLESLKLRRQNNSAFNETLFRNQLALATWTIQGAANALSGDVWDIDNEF

B1: CD71-binding FN3 domain of SEQ ID NO: 516 (designed binder)
chain: MLPAPKNLVVSRVTEDSARLSWTAPDAAFDSFFIGYLEPQPPGEAISLWVPGSERSYDLTGLKPGTEYNVTIQGVKGGFPSSPLVAYFTT
notes: Tencon-based FN3 domain
Turning to B1, the “CTG EC50 (CellTiter-Glo luminescent assay, SKBR3 cells, 72 h)” value in experiment [1] came out at 8.4 nM. In addition, the results for the EC50 in experiment [2] and in experiment [3] were 2.2 nM and 10.6 nM, respectively.

B2: CD71-binding FN3 domain of SEQ ID NO: 529 (designed binder)
chain: B1 chain with S47D, W49Y, S82L, V85Q, Y87H
notes: Tencon-based FN3 domain
Take B2: the “CTG EC50 (CellTiter-Glo luminescent assay, SKBR3 cells, 72 h)” value in experiment [1] stood at 7 nM. In addition, the EC50 in experiment [2] is 2.3 nM; in experiment [3], 2.7 nM.

B3: CD71-binding FN3 domain of SEQ ID NO: 334 (designed binder)
chain: MSLPAPKNLVVSRVTEDSARLSWTAPDAAFDSFEIAYQELSLWGEAIVLTVPGSERSYDLTGLKPGTEYWVQIGGVKGGIWSSPLVASFTT
notes: not shown: C-terminal poly-histidine tag added to each FN3 domain
As for B3, the values for the RLU in experiment [4] and in experiment [5] were 2.7e+06 RLU and 5.45e+06 RLU, respectively. For the same molecule, the “Apical domain:HSA” value in experiment [6] was determined as 378 ratio. Besides, the “hCD71:HSA” value in experiment [7] came to 188 ratio.

B4: CD71-binding FN3 domain of SEQ ID NO: 336 (designed binder)
chain: MSLPAPKNLVVSRVTEDSARLSWTAPDAAFDSFNIMYHEHYDNGEAIVLTVPGSERSYDLTGLKPGTEYSVVINGVKGGPHSAPLSAIFTT
notes: as for B3
Consider B4, for which the RLU was determined as 1.15e+06 RLU in experiment [4] and 4.31e+06 RLU in experiment [5]. The “Apical domain:HSA” value in experiment [6] was 256 ratio. The “hCD71:HSA” value in experiment [7] was 68 ratio.

B5: CD71-binding FN3 domain of SEQ ID NO: 335 (designed binder)
chain: MSLPAPKNLVVSRVTEDSARLSWTAPDAAFDSFFIGYLEPQPPGEAIDLYVPGSERSYDLTGLKPGTEYNVTIQGVKGGFPSLPLVATFTT
notes: as for B3
B5: the values for the RLU in experiment [4] and in experiment [5] were 5.34e+06 RLU and 5.9e+06 RLU, respectively. Further, in experiment [6], the “Apical domain:HSA” value amounted to 103 ratio. In addition, in experiment [7], the “hCD71:HSA” value was 93 ratio.

B6: CD71-binding FN3 domain of SEQ ID NO: 341 (designed binder)
chain: B5 chain with D48E, T88I
notes: as for B3
As to B6, the RLU came out at 5.35e+06 RLU in experiment [4] and 5.31e+06 RLU in experiment [5]. Besides, in experiment [6], the “Apical domain:HSA” value stood at 92 ratio. Moreover, the “hCD71:HSA” value in experiment [7] stood at 92 ratio.

B7: CD71-binding FN3 domain of SEQ ID NO: 343 (designed binder)
chain: B5 chain with D48A, Y50W, L83E
notes: as for B3
As for B7, the RLU in experiment [4] is 5.25e+06 RLU; in experiment [5], 5.42e+06 RLU. The “Apical domain:HSA” value in experiment [6] stood at 178 ratio. In addition, the “hCD71:HSA” value in experiment [7] amounted to 172 ratio.

B8: CD71-binding FN3 domain of SEQ ID NO: 337 (designed binder)
chain: B5 chain with D48H, L83I, V86I, T88S
notes: as for B3
Consider B8, for which the RLU amounted to 5.28e+06 RLU in experiment [4] and 6.62e+06 RLU in experiment [5]. For the same molecule, in experiment [6], the “Apical domain:HSA” value was determined as 385 ratio. In experiment [7], the “hCD71:HSA” value worked out at 307 ratio.

B9: CD71-binding FN3 domain of SEQ ID NO: 342 (designed binder)
chain: B5 chain with D48V, Y50T, L83E, V86I, T88N
notes: as for B3
Consider B9, for which the RLU in experiment [4] was 4.44e+06 RLU; in experiment [5] it was 5.41e+06 RLU. The “Apical domain:HSA” value in experiment [6] stood at 13 ratio. Also, in experiment [7], the “hCD71:HSA” value amounted to 10 ratio.

B10: CD71-binding FN3 domain of SEQ ID NO: 340 (designed binder)
chain: MSLPAPKNLVVSRVTEDSSRLSWTAPDAAFDSFEIGYFENLYLGEAIVLTVPGSERSYDLTGLKPGTEYWVQIGGVKGGNWSAPLSAIFTT
notes: as for B3
In the case of B10, the RLU in experiment [4] came to 3e+06 RLU; in experiment [5], 5.1e+06 RLU. Moreover, the “Apical domain:HSA” value in experiment [6] is 180 ratio. In addition, the “hCD71:HSA” value in experiment [7] was found to be 106 ratio.

B11: CD71-binding FN3 domain of SEQ ID NO: 339 (designed binder)
chain: B10 chain with S19A, F38W, N40M, L41S, L43Y, W70G, Q72S, N80R, A83L
notes: as for B3
As for B11, the RLU in experiment [4] was determined as 2.14e+06 RLU; in experiment [5], 4.86e+06 RLU. Moreover, the “Apical domain:HSA” value in experiment [6] came to 690 ratio. Besides, in experiment [7], the “hCD71:HSA” value amounted to 303 ratio.

B12: CD71-binding FN3 domain of SEQ ID NO: 338 (designed binder)
chain: B10 chain with S19A, W70C, Q72Y, G74C, N80R, W81D, A83M
notes: as for B3
Take B12: the values for the RLU in experiment [4] and in experiment [5] were 2.29e+06 RLU and 5.02e+06 RLU, respectively. For the same molecule, in experiment [6], the “Apical domain:HSA” value stood at 125 ratio. The “hCD71:HSA” value in experiment [7] turned out to be 57 ratio.
